T1: His-tagged mouse CD38 (ACRO Biosystems CD8-M5223) (mouse, UniProt P56528 45-304)
T1 construct: bought protein; used for ELISA coating and as SPR analyte; also called Murine; not shown: His tag
T1 sequence (looked up): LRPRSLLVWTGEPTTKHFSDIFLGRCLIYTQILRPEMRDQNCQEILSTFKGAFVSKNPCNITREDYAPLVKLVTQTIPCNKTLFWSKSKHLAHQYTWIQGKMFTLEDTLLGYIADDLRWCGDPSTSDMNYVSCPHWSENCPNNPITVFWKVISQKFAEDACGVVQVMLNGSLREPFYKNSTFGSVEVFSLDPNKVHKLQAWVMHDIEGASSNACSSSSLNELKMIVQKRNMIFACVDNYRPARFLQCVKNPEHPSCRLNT


Assays:
[1] = molecular target: T2, His-tagged human CD38 (ACRO Biosystems CD8-H5224) (human, UniProt P28907 43-300); test: SPR (second run), His-tagged CD38
T2 construct: bought protein; used for ELISA coating and as SPR analyte; not shown: His tag

[2] = molecular target: T3, His-tagged cynomolgus monkey CD38 (ACRO Biosystems, CD8-05223 [sic]) (cynomolgus monkey, UniProt Q5VAN0 43-301); test: SPR (second run), His-tagged CD38
T3 construct: bought protein; used for ELISA coating and as SPR analyte; not shown: His tag

[3] = molecular target: T1, His-tagged mouse CD38 (ACRO Biosystems …); test: SPR (second run), His-tagged CD38
[4] = molecular target: T2, His-tagged human CD38 (ACRO Biosystems …); test: SPR, IgG
[5] = molecular target: T3, His-tagged cynomolgus monkey CD38 (ACRO …); test: SPR, IgG

| Kd [1] [nM] | Kd [2] [nM] | Kd [3] [nM] | Kd [4] [nM] | Kd [5] [nM] | Binder |
| --- | --- | --- | --- | --- | --- |
| 56.9 | 203 | 23.7 |  |  | 40596p1.A5 (scFv, V domains shown) VH: EVQLLESGGGLVQPGGSLRLSCAASGFDFSNNAMSWVRQAPGKGLEYVAGSGWSGSFIFYADSVKGRFTVSRDNSENTLYLQMNSLRAEDTAVYYCAKNPGFGEMDVWGQGTTVTVSS VL: EIVLTQSPGSLSLSPGERATLRCRASQSIGSNLAWYQQKPGQAPSLLIYGASTRAADIPDRFSGSGSGTEFTLTITSLQSEDFAVYYCQQYNSWPPLTFGGGTKVEIK |
| 54.7 | 172 | 45.2 |  |  | 40596p1.D2 (scFv, V domains shown) VH: EVQLLESGGGLVQPGGSLRLSCAASGFDFSKNAMSWVRQAPGKGLEYVAGSGWSGSFIFYADSVKGRSTVSRDNSENTLYLQMSSLRAEDTAVYYCAKNPGFGEMDVWGQGTTVTVSS VL: ELVLTQSPGSLFLSPGERATLTCRASQTIGSNLAWYQQKFGQAPRLLIYGASTRAADIPDRFSGSGSGTEFTLTISSLQSEDFAVYYCQQYNSWPPLTFGGGTKVEIK |
| 26.4 | 147 | 930 |  |  | 40596p1.E4 (scFv, V domains shown) VH: EVQLLESGGGLVQPGGSLRLSCAASGFDFSGSAMSWVRQAPGKGLEYVAGLGWSGSFIYYADSVKGRSTISRDNSKNTLYLQLNSLRAEDTAVYYCARNPGFGEMDVWGQGTTVTVSS VL: EIVLTQSPGSLSLSPGERATLSCRASQTVGSNLAWYQQKPGQAPRLLIYGASTRATDIPDRFSGSGSGTEFTLTISSLQSEDFAVYYCQQYNSWPPLTFGGGTKVEIK |
| 75.3 | 102 | 141 |  |  | 40617p1.2.A1 (scFv, V domains shown) VH: EVQLLESGGGLVQPGGSLRLSCAASGFTFSSYWMTWVRQAPGKGLEWVSAISSYGGQYTYYADSVKGRFTISRDNSKDTLYLHMDSLRAEDTAVYYCAKDWDDGMDVWGQGTTVTVSS VL: EIVMTQSPAVLSVSPGERATLSCRASQSVNIKLAWYQQKPGQAPRLLIYGASTRAAGIPDRFSGSGSGTDFTLTISSLQSDDFAVYYCQQYYDLPPYSFGGGTKVEIK |
| 9.71 | 33.8 | 73 |  |  | 40617p1.2.H1 (scFv, V domains shown) VH: EVQLLESGGGLVQPGGSLRLSCAASGFTFTNYWMTWVRQAPGKGLEWVSAISSYGGNYMYYADSVKGRFTISRDNSENTLYLQMNSLRAEDTAVYYCAKDWDDGMDVWGQGTTVTVSS VL: EIVMTQSPAVLSVSPGERATLSCRASQTVGSKLAWYQQKPGQAPRLLIYGVSTRAAGIPDRFSGSGSGTDFTLTISSLQSEDFAVYYCQQYYDLPPYSFGGGTKVEIK |

Continued, binder first:

| Binder | Kd [1] [nM] | Kd [2] [nM] | Kd [3] [nM] | Kd [4] [nM] | Kd [5] [nM] |
| --- | --- | --- | --- | --- | --- |
| 40596p1.F6 (scFv, V domains shown) VH: EVQLLESGGGLVQPGGSLRLSCAASGFDFSKNAMSWVRQAPGKGLEYVAGSGWSGSFIFYADSVKGRFTVSRDNSENTLYLQMSSLRAEDTAVYYCAKNPGFGEMDVWGQGTTVTVSS VL: EIVLTQSPGSLFLSPGERATLTCRASQTIGSNLAWYQQKFGQAPRLLIYGASTRAADIPDRFSGSGSGTEFTLTISSLQSEDFAVYYCQQYNSWPPLTFGGGTKVEIK | 80.4 | 281 | 27.2 |  |  |
| 40617p1.2.B4 (scFv, V domains shown) VH: EVQLLESGGGFVQPGGSLRLSCAASGFTFTNYVMNWVRQAPGKGLEWVSSISISGGRYTWYADSVKGRFTISRDNSRNTLYLQMNSLRAEDTAIYYCAREMNTYSFPMDVWGQGTTVTVSS VL: EIVLTQSPGTLSLSPGERATLNCRASQNVRSDLAWYQQKPGQAPRLLIYDASNRATGIPDRFSGSGSGTDFSLTISRLEPEDFAVYYCQQYYDWPPYTFGGGTKVEIK | 36.1 | 149 | 3.33 |  |  |
| 40769p2.2.H8 IgG (antibody, V domains shown, IgG) VH: EVQLLESGGGLVQSGGSLRLSCAASGFNFNSHDMNWVRQAPGKGLEWVSSISADRGRTYYADSVKGRFTIFRDDSKKILYLQMNSLRAEDTAVYYCTKYYNMDVWGQGTTVTVSS VL: not shown |  |  |  | 65.7 | 148 |
